Measurements as given in patent US6461841B2, “L-amino acid oxidase from Rhodococcus species” (Degussa AG, priority 2000, dated 2002).

Assays:
[1] = Storage stability of the L-amino acid oxidase as a function of the pH; assay type: physicochemical, Rhodococcus opacus; conditions: after 100 hours in glycine NaOH buffer at pH 10 and 10.5; room temperature; 24 μg/mL protein
Experimental: c) Storage Stability of the L-amino Acid Oxidase as a Function of the pH L-amino acid oxidase was incubated in 0.2 M buffer of different compositions, at a protein concentration of 24, μg/mL, at room temperature. Afterwards, the residual activity was determined using 0.2 M TEA buffer, pH 7.6, and 10 mM L-ala. […] After 100 hours in glycine NaOH buffer, it was still possible to detect more than 90% activity at pH 10 and 10.5.

[2] = Enzyme test of purification fractions with L-ala (o-dianisidine/POX, 450 nm); assay type: biochemical, Rhodococcus opacus; conditions: 0.2 M TEA-HCl, pH 7.6, 10 mM L-ala, 30° C.
Experimental: The cells were digested by means of wet grinding with glass beads. For this purpose, the moist bacteria mass (15 g) was suspended in 50 mM TEA-HCl buffer (pH 7.0), so that the concentration of the moist cell mass was 25%. The cell content substances were released from the ice-cooled suspension by means of mechanical digestion using a glass bead mill (SCP disintegrator, Innomed-Konsult AB, Sweden). For this purpose, the grinding container was filled with 100 mL glass beads (diameter 0.3 mm) and the cell suspension. Digestion was carried out at a stirring shaft speed of 3,000 rpm. The cooling mantle was filled with ice water before the start of the run.
15 g moist bacteria mass yielded 45 mL crude extract with a volume activity of 0.035 U/mL and a protein content of 9.4 mg/mL. From this, it can be calculated that approximately 150 units L-amino acid oxidase can be obtained from 10 L fermenter batch.
The enzyme can be purified by means of ion exchange chromatography, hydrophobic interaction chromatography, and chromatography with hydroxyl apatite as the column material. The crude extract was pumped onto a column (h 5.5×diameter 5 cm) packed with MarcoPrep High Q Support Material (Biorad, Hercules, USA), at a flow velocity of 0.2 mnL/min. The ion exchanger had previously been equilibrated with a buffer, which contained 50 mM TEA-HCl, pH 7.0. […]

[3] = Determination of the isoelectric point by isoelectric focusing; assay type: physicochemical, Rhodococcus opacus; conditions: carrier ampholytes on agarose, pH range 4-6
Experimental: The isoelectric point of the L-amino acid oxidase was determined using isoelectric focusing with carrier ampholytes on agarose, in a pH range of 4-6. The pI is at pH 4.8. Carboanhydrase, β-lactoglobulin, trypsin inhibitor, glucose oxidase were used as marker proteins.

[4] = pH dependence of the oxidation process; assay type: biochemical, Rhodococcus opacus; conditions: 80 mM TEA-HCl buffer; for L-alanine, L-phenylalanine and L-leucine
Experimental: The reaction speed of the oxidation of L-amino acids to keto acids in the presence of the L-amino acid oxidase was studied as a function of the pH in the reaction solution. The test batch (200 μL) had the following composition: 10 mM L-amino acid, 25 U/mL peroxidase from horseradish, 80 mM buffer with different pH values and compositions, 0.2 mg/mL o-dianisidine, enzyme in limiting amount.

[5] = Storage stability of the L-amino acid oxidase at 4° C.; assay type: physicochemical, Rhodococcus opacus; conditions: several months; 0.7 mg/mL protein; 50 mM glycine NaOH buffer, pH 8.6; sterile conditions

B1: L-amino acid oxidase: L-amino acid oxidase (L-AAO) from Rhodococcus opacus DSM 43250, SEQ ID NO: 2, homogeneously purified (protein, listed as Rhodococcus opacus)
chain: AGDLIGKVKGSHSVVVLGGGPAGLCSAFELQKAGYKVTVLEARTRPGGRVWTARGGSEETDLSGETQKCTFSEGHFYNVGATRIPQSHITLDYCRELGVEIQGFGNQNANTFVNYQSDTSLSGQSVTYRAAKADTFGYMSELLKKATDQGALDQVLSREDKDALSEFLSDFGDLSDDGRYLGSSRRGYDSEPGAGLNFGTEKKPFAMQEVIRSGIGRNFSFDFGYDQAMMMFTPVGGMDRIYYAFQDRIGTDNIVFGAEVTSMKNVSEGVTVEYTAGGSKKSITADYAICTIPPHLVGRLQNNLPGDVLTALKAAKPSSSGKLGIEYSRRWWETEDRIYGGASNTDKDISQIMFPYDHYNSDRGVVVAYYSSGKRQEAFESLTHRQRLAKAIAEGSEIHGEKYTRDISSSFSGSWRRTKYSESAWANWAGSGGSHGGAATPEYEKLLEPVDKIYFAGDHLSNAIAWQHGALTSARDVVTHIHERVAQEA
In the case of B1, the residual activity [1] is reported as “more than 90%”, the “Spec. act. (U/mg)” value [2] is reported as 4.6 U/mg and the “Spec. act. (U/mg)” value ([2]; listed as Hydroxyl apatite pool) is reported as 4.61 U/mg. The “isoelectric point (pI)” value [3] was 4.8, the pH optimum [4] was 8.5 and the “storage stability at 4° C.” value [5] was “without any loss of activity”.
